{"source": "patent US20260028391A1", "binders": {"B1": {"name": "MPK162 (antibody, V domains shown)", "VH": "EVQLVESGGGLVKPGDSLRLSCAASGFSLSSYYMFWIRQAPGKGLEWVSDISGGSTFTNYADSVKGRFTISRDNAKKVLYLQMNSLRVDDSAVYYCVRGSSISPNWFESWGQGALVTVSS", "VL": "QSVLTQPPSVSGAPGQRVTISCTGTSSNIGAGYDVHWYQQVPGTAPKLLIYGNSNRPSGVPDRFSGSKSGTAASLAINGLQTEDEAEYYCQSYDRSLTGSYVFGSGTRVFVR"}, "B2": {"name": "MPK174-v2 (antibody, V domains shown)", "VH": "EVQLVESGGGLVKPGGSLRLSCAASRFKFGDYYMSWIRQAPGKGLEWVSNISPSSSYTNYADSVKGRFTISRDNAKNLLYLQMNSLRAEDTAVYYCARESCSGGSCSLHGMDVWGQGTTVTVAS", "VL": "QSVLTQPPSVSGAPGQRVTISCTGSSSNIGAGYDVHWYQQLPGTAPKLLIYDNSNRPSGVPDRFSGSKSGTSASLAITGLRAEDDADYYCQSYDRSLGGSIFGGGTKLTVL"}, "B3": {"name": "MPK144 (antibody, V domains shown)", "VH": "EVQLVESGGGLVRPGGSLRLSCAASGFTFTGYYMMWIRQAPGKGLEWISDISSSSSYTNYADSVKGRFAISRDNAQNTLYLQMNSLRAEDTAVYYCATEQVPSPGPFDLWGQGTLVTVSS", "VL": "B2 VL with I29F, L41F, A45S, D52R, S54T, R81Q, D85E, G98T, S100W, I101V"}, "B4": {"name": "MPK196 (antibody, V domains shown)", "VH": "B2 VH with E1Q, K76N", "VL": "B2 VL"}, "B5": {"name": "MPK142-v1 (antibody, V domains shown)", "VH": "EVQLVESGGGLVEPGGSLRLSCAASGFTISGYGMSWVRQAPGKGLEWVSSISASSSYIYYGDAMKGRITISRDNGWNSMYLQMNSLRTEDTAVYYCATAPIEPPYFDLWGRGTLVTVSS", "VL": "QSVLTQPPSVSGAPGQRVTISCTGSSSNIGAGYDVHWYQQFPGKAPKVLIYGNNNRPSGVPDRFAASNSGASASLAITGLQAEDEAAYFCQSYDRRLSGPVFGGGTKLTVL"}, "B6": {"name": "MPK142-v2 (antibody, V domains shown)", "VH": "B5 VH", "VL": "DIQLTQTPTSLSASVGDRVTFTCRASQNIGFYLNWYQQKPGKAPRLLIYGASNLQSGVPSRFSGSGAGTDFSLTISSLQPEDFATYYCQQSFNTPRTFGQGTKVEIN"}, "B7": {"name": "MPK145 (antibody, V domains shown)", "VH": "B5 VH", "VL": "B5 VL with L4V"}, "B8": {"name": "MPK126 (antibody, V domains shown)", "VH": "EVQLVESGGGLVKPGGSMRLSCAASGVTLSGYYMIWIRQAPGKGLEWISDISASSTYTDYADSVKGRFTVSRDNSQNTVYLQMNSLRAEDTAVYYCATEQTPSPGPFDLWGQGTLVTVSS", "VL": "QSVLTQPPSVSGAPGQRVTISCTGSSSNVGAGYDVHWYQQFPGTSPKLLIYRNTNRPSGVPDRFSGFKSGTSASLAITGLEAEDEADYYCQSYDRSLSGWVFGAGTKLTVL"}, "B9": {"name": "MPK151 (antibody, V domains shown)", "VH": "B8 VH with M18L, V27L, L29I, D62E, T69S, V70I, S75G", "VL": "B8 VL with R17K, V18I, S25G, V29F, N55F, F67S, E81Q, A104G"}, "B10": {"name": "MPK136 (antibody, V domains shown)", "VH": "EVQLVESGGGLVKPGGSLRLSCEASGFSLSGYYMIWIRQAPGKGLEWISSISGSGNYINYADSVKGRFTVSRDNGHNTLYLQMNSLRVEDTAVYYCATEQTPSPGPFDHWGQGTLVTVSS", "VL": "QVQLVQPPSVSGAPGQRVSISCTGTSSNIGTGYDVHWYQQFPGTSPKLLIYRNTNRPSGVPDRFSGSKSGSSASLAIAGLQAEDEADYYCQSYDRSVSGWVFGGGTKLTVL"}, "B11": {"name": "MPK149 (antibody, V domains shown)", "VH": "QVQLVESGGGLVKPGGSLRLSCEASGFTISGYFMIWIRQAPGKGLEWISSISGSSTYTDYAESVKGRFTISRDNGRSTLYLQMNSLRVEDTAVYYCATEQTPSPGPFDLWGQGTLVTVSS", "VL": "B10 VL with V2S, Q3V, L4V, V5T, S19T, T31A, K47R, Y51N, K68Q"}, "B12": {"name": "MPK150-v2 (antibody, V domains shown)", "VH": "EVQLVESGGGLVKPGGSLRLSCEASGISLSGYYMIWIRQAPGKGLEWISSISGSSTYIDYADSVRGRFTISRHNGQNTIYLQMNSLRVEDTAVYFCATEQTPSPGPFELWGRGILVTVSS", "VL": "B10 VL with V2S, Q3V, V5T, S19T, S21F, Y51F, T54S, S96G, S98N"}, "B13": {"name": "MPK141 (antibody, V domains shown)", "VH": "EVQLVESGGGLVKPGGSLRLSCAASGFTISGYYMTWIRQAPGKGLEWISYISGSSSYTNYADSVKGRFTISRDNGRNSVYLQMNSLRADDTGVYYCAREETPSPGPFDSWGQGILVTVSS", "VL": "QSVLTQPPSVSGAPGQRIIISCIGSSSNIGTGYDVHWYQQLPGRAPKLLISRNTNRPSGIPDRFSGSKSGTSASLAITGLQADDEADYYCQSYDRGLDGWVFGGGTKLTVL"}, "B14": {"name": "MPK193 (antibody, V domains shown)", "VH": "EVQLVQSGAEVKKPGESLKISCEASGYSFNNYWIGWVRQMPGKGLEWMGIIYPFDSDTKYSPSFQGHVTISADKSINTAYLQWSSLKASDTAMYFCARFTFGIVLVAGDVTGEGHAFDVWGRGTMVTVTS", "VL": "EIVMMQSPVTLSVSPGGRATLSCRASQSVAGNLAWYQQRPGQAPRLLIYGASTRATGVPARFSGSGSETEFTLTISSLQSEDFAVYYCHHYSNWPQAFGQGTRLDIK"}, "B15": {"name": "MPK201 (antibody, V domains shown)", "VH": "EVQLVQSGAEVKKPGESLKISCQGSGYSFINYWIGWVRQKPGKGLEWMGIIYPFDSETKYSPSFQGHVTFSADKSINTAYVQWSSLRASDTAMYYCARFTFGLAVTTADVSGEGQAFEIWGQGTMVTVSS", "VL": "B14 VL with V9A, G17E, I48V, T56S, N93D"}, "B16": {"name": "MPK158 (antibody, V domains shown)", "VH": "EVQLVESGGGLVKPGGSLRLSCAASGFSISGFYMIWIRQAPGKGLEWISDISASSSYIDYADSVKGRFTISRDNGQNTVHLLMNNLRADDTGVYYCAREQTPSPGPFDLWGQGTLVTVST", "VL": "QPVLTQPPSVSGAPGQRVTISCTGRSSNIGAGYDVHWYQHLPGTSPKLLIYRNSNRPSGVPDRFSGSTSGTSASLAITGLQADDEADYYCQAYDRILGGWAFGGGTKLTVL"}, "B17": {"name": "MPK133 (antibody, V domains shown)", "VH": "QVQLVQSGGGLVKPGGSLRLSCAASEFSFSGYFMIWIRQAPGKGLEWISYISGSSTYTNYADSVKGRFTISRDNAQNTLYLEMNSLRAEDTGVYYCATEQVPSPGPFDLWGQGTLVTVSS", "VL": "QSVLTQPPSVSGAPGQRVTISCTGSSSNIGAGYDVHWYQQFPGRSPTLLIYRNTNRPSGVPDRFSGSQSGSSASLAITGLQAEDEADYYCQSYDRTLSGWAFGGGTKVTVL"}, "B18": {"name": "MPK146 (antibody, V domains shown)", "VH": "QVQLVESGGGLVKPGGSLRLSCAASGFTFSGYYMIWIRQAPGKGLEWIASISGSSNYIDYADSVRGRFTISRDNARNILDLQMNSLRAGDTALYYCATEQVPSPGPFDLWGQGTLVTVSS", "VL": "B8 VL with S26N, V29L, S65A, F67S, E81Q, A104G"}, "B19": {"name": "MPK130 (antibody, V domains shown)", "VH": "EVQLVESGGGLVKPGGSLTLSCEASGFSISGYYMIWVRQAPGKGLEWVSSISASDTYIDYAVSVQGRFTISRHNTKNSLYLQMSSLRVEDTGVYYCTREKVPSPGPFDCWGQGTLVTVSS", "VL": "QSVLTQPPSVSGAPGQRITISCTGTSSNIGAGYDVHWYQHLPGAAPRLLIYVNTNRPSGVPDRFSGARSGTSASLAITGLQAEDEADYYCQSYDRSLGGWAFGEGTKVTVL"}, "B20": {"name": "MPK204 (antibody, V domains shown)", "VH": "B10 VH with E1Q, F27L, G53S, G55S, N59D, V70I, D73H, H76Q, H109L", "VL": "B10 VL with V2S, Q3V, V5T, S19T"}}, "note": "Numbering of substitutions follows the chain as printed.", "data": [{"biological_target": "fusion glycoprotein of the MPV D280 used in the neutralization assay of Example 3 (metapneumovirus (strain not stated))", "assay": "cell-based or functional assay", "units": {"MPV D280 Neutralization - IC50": "µg/mL"}, "values": [{"binder": "B1", "MPV D280 Neutralization - IC50": 0.102}, {"binder": "B2", "MPV D280 Neutralization - IC50": 0.0177}, {"binder": "B3", "MPV D280 Neutralization - IC50": 0.0049}, {"binder": "B4", "MPV D280 Neutralization - IC50": 0.027}, {"binder": "B5", "MPV D280 Neutralization - IC50": 0.003}, {"binder": "B6", "MPV D280 Neutralization - IC50": 0.135}, {"binder": "B7", "MPV D280 Neutralization - IC50": 0.0078}, {"binder": "B8", "MPV D280 Neutralization - IC50": 0.0236}, {"binder": "B9", "MPV D280 Neutralization - IC50": 0.0178}, {"binder": "B10", "MPV D280 Neutralization - IC50": 0.0158}, {"binder": "B11", "MPV D280 Neutralization - IC50": 0.0192}, {"binder": "B12", "MPV D280 Neutralization - IC50": 0.0158}, {"binder": "B13", "MPV D280 Neutralization - IC50": 0.0098}]}, {"biological_target": "fusion glycoprotein of the RSV used in the neutralization assay of Example 1 (respiratory syncytial virus (strain not stated))", "assay": "cell-based or functional assay", "units": {"RSV Neutralization - IC50": "µg/mL"}, "values": [{"binder": "B1", "RSV Neutralization - IC50": 0.0252}, {"binder": "B2", "RSV Neutralization - IC50": 0.0136}, {"binder": "B3", "RSV Neutralization - IC50": 0.0082}, {"binder": "B5", "RSV Neutralization - IC50": 0.0211}, {"binder": "B6", "RSV Neutralization - IC50": 0.162}, {"binder": "B7", "RSV Neutralization - IC50": 0.0239}, {"binder": "B14", "RSV Neutralization - IC50": 0.001}, {"binder": "B15", "RSV Neutralization - IC50": 0.0024}, {"binder": "B8", "RSV Neutralization - IC50": 0.0264}, {"binder": "B9", "RSV Neutralization - IC50": 0.0375}, {"binder": "B10", "RSV Neutralization - IC50": 0.0344}, {"binder": "B11", "RSV Neutralization - IC50": 0.0335}, {"binder": "B12", "RSV Neutralization - IC50": 0.0147}, {"binder": "B13", "RSV Neutralization - IC50": 0.014}]}, {"biological_target": "MPV fusion glycoprotein with the D280N mutation (MPV-F N280) (metapneumovirus)", "assay": "SPR; F protein loaded on streptavidin sensors, mAb in solution", "units": {"Kd": "nM"}, "values": [{"binder": "B1", "Kd": 100}, {"binder": "B16", "Kd": 0.29}, {"binder": "B2", "Kd": 100}, {"binder": "B3", "Kd": 100}, {"binder": "B4", "Kd": 100}, {"binder": "B5", "Kd": 100}, {"binder": "B6", "Kd": 0.2}, {"binder": "B7", "Kd": 0.85}, {"binder": "B17", "Kd": 3.7}, {"binder": "B8", "Kd": 0.21}, {"binder": "B18", "Kd": 7.2}, {"binder": "B9", "Kd": 0.27}, {"binder": "B19", "Kd": 1.9}, {"binder": "B10", "Kd": 4.6}, {"binder": "B11", "Kd": 0.4}, {"binder": "B20", "Kd": 2.6}, {"binder": "B12", "Kd": 0.58}, {"binder": "B13", "Kd": 0.84}]}, {"biological_target": "MPV fusion glycoprotein without the D280N mutation (MPV-F D280) (metapneumovirus)", "assay": "SPR; F protein loaded on streptavidin sensors, mAb in solution", "units": {"Kd": "nM"}, "values": [{"binder": "B1", "Kd": 100}, {"binder": "B16", "Kd": 0.001}, {"binder": "B2", "Kd": 11}, {"binder": "B3", "Kd": 0.81}, {"binder": "B4", "Kd": 3.8}, {"binder": "B5", "Kd": 100}, {"binder": "B6", "Kd": 0.0027}, {"binder": "B7", "Kd": 0.001}, {"binder": "B17", "Kd": 0.082}, {"binder": "B8", "Kd": 0.001}, {"binder": "B18", "Kd": 0.001}, {"binder": "B9", "Kd": 0.001}, {"binder": "B19", "Kd": 0.018}, {"binder": "B10", "Kd": 0.001}, {"binder": "B11", "Kd": 0.001}, {"binder": "B20", "Kd": 0.001}, {"binder": "B12", "Kd": 0.001}, {"binder": "B13", "Kd": 0.001}]}]}
